The values below come from patent US20160250325A1 (ISA PHARMACEUTICALS B V, published 2016).

In this assay the target is mouse TLR2 on a murine dendritic cell line (mouse, UniProt Q9QUN7 25-784). In words: cell-based or functional assay.

Ends that are not written are not given here. * marks the point of attachment. X1 = (RS)‑2,3‑di(palmitoyloxy)propyl, CCCCCCCCCCCCCCCC(=O)OCC(C*)OC(=O)CCCCCCCCCCCCCCC

Sequence of mouse TLR2 on a murine dendritic cell line (Q9QUN7 25-784): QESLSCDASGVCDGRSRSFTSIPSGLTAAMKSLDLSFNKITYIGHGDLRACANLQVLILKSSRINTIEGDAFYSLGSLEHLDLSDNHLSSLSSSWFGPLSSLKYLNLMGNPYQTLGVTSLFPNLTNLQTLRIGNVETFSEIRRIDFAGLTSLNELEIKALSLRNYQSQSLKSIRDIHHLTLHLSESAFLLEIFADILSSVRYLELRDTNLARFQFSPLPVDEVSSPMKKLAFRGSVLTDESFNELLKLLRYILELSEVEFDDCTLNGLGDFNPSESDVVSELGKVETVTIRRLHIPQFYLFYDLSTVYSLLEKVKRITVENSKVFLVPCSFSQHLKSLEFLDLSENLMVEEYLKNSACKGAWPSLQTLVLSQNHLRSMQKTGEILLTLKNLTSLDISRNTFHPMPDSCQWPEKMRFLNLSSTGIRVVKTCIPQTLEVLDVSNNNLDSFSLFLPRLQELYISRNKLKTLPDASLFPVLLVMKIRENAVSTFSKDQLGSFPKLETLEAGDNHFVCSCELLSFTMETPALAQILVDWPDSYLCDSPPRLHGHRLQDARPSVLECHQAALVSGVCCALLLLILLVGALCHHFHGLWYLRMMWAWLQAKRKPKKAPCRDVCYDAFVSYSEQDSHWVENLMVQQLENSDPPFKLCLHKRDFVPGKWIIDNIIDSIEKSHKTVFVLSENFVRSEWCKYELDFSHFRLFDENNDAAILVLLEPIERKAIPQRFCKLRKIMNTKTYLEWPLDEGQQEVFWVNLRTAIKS

B1: U-Pam-12 (1-dodecadecyl-urea-Cys((RS)-2,3-di(palmitoyloxy)-propyl)-Ser-Lys-Lys-Lys-Lys-NH2) (peptide)
peptide: C(X1)SKKKK-NH2
modifications: not fully specified (N-terminus); printed as 1-dodecadecyl-urea-Cys((RS)-2,3-di(palmitoyloxy)-propyl)-Ser-Lys-Lys-Lys-Lys-NH2; also: epimer mixture at C-2 of dipalmitoyloxypropyl
On to B1, for which the “IL-12 in supernatant of a murine dendritic cell line after 24 h (sandwich ELISA); concentration needed for similar stimulation, against Pam3CysSK4” value was 100 fold and the “IL-12 in supernatant of a murine dendritic cell line after 24 h (sandwich ELISA); maximal stimulation level against Pam3CysSK4” value was found to be 2 fold.

{1‑tetradecyl‑urea}-C(X1)SKKKK-NH2 (also: epimer mixture at C-2 of dipalmitoyloxypropyl) [U-Pam-14 (1-tetradecyl-urea-Cys((RS)-2,3-di(palmitoyloxy)-propyl)-Ser-Lys-Lys-Lys-Lys-NH2)]: the “IL-12 in supernatant of a murine dendritic cell line after 24 h (sandwich ELISA); concentration needed for similar stimulation, against Pam3CysSK4” value is 100 fold and the “IL-12 in supernatant of a murine dendritic cell line after 24 h (sandwich ELISA); maximal stimulation level against Pam3CysSK4” value came out at 2 fold.
